One test concerns the target human CD40 (human) (UniProt P25942). Kind of test: Biacore. (In general: In SPR one partner is held on a chip, and binding of the other changes the refractive index at the surface.)
A further test has as its target T1, soluble CD40 (Homo sapiens (Human), UniProt P25942 20-193).
T1 construct: Soluble CD40 as used in ELISA-type assays; the real soluble form is shorter
Kind of test: ELISA-type assays. In general terms: ELISA stands for enzyme-linked immunosorbent assay.

By Kd is commonly meant the concentration at which binding is half-saturated.

T1 sequence (P25942 20-193): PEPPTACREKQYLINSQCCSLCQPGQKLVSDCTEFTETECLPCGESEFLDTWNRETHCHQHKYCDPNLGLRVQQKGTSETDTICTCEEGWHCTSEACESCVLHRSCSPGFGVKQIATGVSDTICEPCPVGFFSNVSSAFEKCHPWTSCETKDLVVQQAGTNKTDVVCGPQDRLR

B1: monoclonal antibody HCD122 (antibody, human IgG1, kappa, V domains shown)
VH: QVQLVESGGGVVQPGRSLRLSCAASGFTFSSYGMHWVRQAPGKGLEWVAVISYEESNRYHADSVKGRFTISRDNSKITLYLQMNSLRTEDTAVYYCARDGGIAAPGPDYWGQGTLVTVSS
VL: DIVMTQSPLSLTVTPGEPASISCRSSQSLLYSNGYNYLDWYLQKPGQSPQVLISLGSNRASGVPDRFSGSGSGTDFTLKISRVEAEDVGVYYCMQARQTPFTFGPGTKVDIRR
notes: Fully human IgG1 kappa anti-CD40 monoclonal antibody from the hybridoma deposited as ATCC PTA-5543; also called CHIR-12.12
As for B1, the Kd with human CD40 (human) turned out to be 0.5 nM. In addition, in the test with soluble CD40, the binding result is listed as “binds”.

The record behind these values is WO2012075111A1 (dated 2012).
